Reference: patent publication US20230051715A1 (MABWELL THERAPEUTICS, published 2023)

B1: Anti-C1s antibody hz2-7(H1L2) (antibody, V domains shown)
VH: EVQLLESGGGLVQPGGSLRLSCAASGFTFSNYFMNWVRQAPGKGLEWVSEIRLKFTNYATHYADSVKGRFTISRDDSKSTLYLQMNSLRAEDTAVYYCTRDYGSRNGYFDYWGQGTLVTVSS
VL: DIVMTQTPLSLPVTPGEPASISCRSSKSLLHSNGNTFLYWFLQKPGQSPQLLIYRMSNLASGVPDRFSGSGSGTDFTLKISRVEAEDVGVYYCMQHLEYPYTFGGGTKLEIKR
notes: Humanized, human IgG1 / kappa; also called hz2-7(1L2)
B2: Anti-C1s antibody hz2-8 (H1L2 G80A) (antibody, V domains shown)
VH: QVQLVQSGAEVKKPGASVKVSCKASGFNIKEYYMHWVRQAPEQGLEWMGWIDPENADTIYAQKFQGRVTITADTSTNTAYMELSSLRSEDTAVYYCARSRLFFAYWGQGTLVTVSS
VL: DIQMTQSPKSLSASVGDRVTITCRASQDVRTALDWYQQKPGQSPKLLIYSASYRYSGVPSRFSGSGSGTDFTLTISSLQPEDFATYYCQQQYTTPYTFGQGTKLEIKR
notes: Humanized variant with G80A in HC CDR2 (already in the entry), human IgG1 / kappa
B3: Anti-C1s antibody hz2-8 (H1L2 G80A/T82A) (antibody, V domains shown)
VH: QVQLVQSGAEVKKPGASVKVSCKASGFNIKEYYMHWVRQAPEQGLEWMGWIDPENADAIYAQKFQGRVTITADTSTNTAYMELSSLRSEDTAVYYCARSRLFFAYWGQGTLVTVSS
VL: DIQMTQSPKSLSASVGDRVTITCRASQDVRTALDWYQQKPGQSPKLLIYSASYRYSGVPSRFSGSGSGTDFTLTISSLQPEDFATYYCQQQYTTPYTFGQGTKLEIKR
notes: Humanized variant with G80A and T82A in HC CDR2 (already in the entry), human IgG1 / kappa

What was measured:
[1] = target: T1, human C1s mutant M13 (A292D) (human, UniProt P09871 16-688); assay: ELISA, plate coated with human C1s mutant M13: A292D, OD450nm
T1 construct: The entry is the mutant itself
T1 sequence: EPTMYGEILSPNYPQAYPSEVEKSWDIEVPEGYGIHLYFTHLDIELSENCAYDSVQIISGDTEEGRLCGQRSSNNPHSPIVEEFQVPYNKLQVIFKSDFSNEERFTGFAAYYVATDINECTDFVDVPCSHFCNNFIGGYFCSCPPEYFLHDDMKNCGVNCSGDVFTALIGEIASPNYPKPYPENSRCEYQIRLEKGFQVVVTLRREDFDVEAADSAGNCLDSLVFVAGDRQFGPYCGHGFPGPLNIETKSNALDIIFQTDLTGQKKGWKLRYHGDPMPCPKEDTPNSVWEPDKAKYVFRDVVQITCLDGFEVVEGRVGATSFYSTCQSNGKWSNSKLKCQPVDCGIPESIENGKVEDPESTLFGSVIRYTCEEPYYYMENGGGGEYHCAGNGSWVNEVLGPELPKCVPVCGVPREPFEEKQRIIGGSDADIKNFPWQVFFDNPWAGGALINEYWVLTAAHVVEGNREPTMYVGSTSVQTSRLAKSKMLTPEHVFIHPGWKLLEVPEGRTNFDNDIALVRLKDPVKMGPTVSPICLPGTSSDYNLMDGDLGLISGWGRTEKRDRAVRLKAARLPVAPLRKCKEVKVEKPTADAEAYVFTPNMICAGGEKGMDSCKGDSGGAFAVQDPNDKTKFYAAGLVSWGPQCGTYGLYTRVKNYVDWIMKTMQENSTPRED
Description: (§1) ELISA was carried out by first coating 96-well plates with 200 ng/well of full-length or truncated C1s proteins overnight. The next morning, plates were blocked with SuperBlock T20 blocking buffer (Thermo Scientific 37536) for 1 h with gentle shaking. Then, various concentrations of anti-C1s antibodies diluted in SuperBlock T20 blocking buffer were added to the plates and incubated for 1 h with gentle shaking. Mouse IgG (Sigma-Aldrich 15381) and human IgG1 (BioXCell BP0297) were used as negative controls. The plates were washed before incubating with HRP conjugated secondary antibodies diluted in SuperBlock T20 blocking buffer (goat anti-mouse IgG (H+L) cross-adsorbed secondary antibody HRP (Invitrogen G-21040) or goat anti-human IgG antibody, HRP conjugate (Millipore AP309P)) for 1 h with gentle shaking. At last, the plates were washed and color developed with ELISA liquid HRP substrate (Sigma-Aldrich), followed by stopping the reaction with addition of 1M H₂SO₄ in the same volume as the ELISA liquid substrate. Bound antibody was measured by absorbance at OD₄₅₀ₙₘ.
(§2) Binding of anti-C1s antibodies to mutants M1-M20 of human C1s was measured by ELISA as described in Example 4, and results are shown in FIGS. 6B-6U. All anti-C1s humanized variants including hz2-7(H1L2), hz2-8(H1L2 G80A) and hz2-8(H1L2 G80A/T82A) maintained strong binding properties to the majority (16 out of 20) of C1s mutants including M1 (FIG. 6B), M2 (FIG. 6C), M3 (FIG. 6D). M4 (FIG. 6E), M7 (FIG. 6H), M8 (FIG. 6I), M10 (FIG. 6K), M11 (FIG. 6L), M12 (FIG. 6M), M13 (FIG. 6N), M15 (FIG. 6P), M16 (FIG. 6Q), M17 (FIG. 6R), M18 (FIG. 6S), M19 (FIG. 6T) and M20 (FIG. 6U).

[2] = target: T2, human C1s mutant M16 (R368H) (human, UniProt P09871 16-688); assay: ELISA, plate coated with human C1s mutant M16: R368H, OD450nm
T2 construct: The entry is the mutant itself
T2 sequence: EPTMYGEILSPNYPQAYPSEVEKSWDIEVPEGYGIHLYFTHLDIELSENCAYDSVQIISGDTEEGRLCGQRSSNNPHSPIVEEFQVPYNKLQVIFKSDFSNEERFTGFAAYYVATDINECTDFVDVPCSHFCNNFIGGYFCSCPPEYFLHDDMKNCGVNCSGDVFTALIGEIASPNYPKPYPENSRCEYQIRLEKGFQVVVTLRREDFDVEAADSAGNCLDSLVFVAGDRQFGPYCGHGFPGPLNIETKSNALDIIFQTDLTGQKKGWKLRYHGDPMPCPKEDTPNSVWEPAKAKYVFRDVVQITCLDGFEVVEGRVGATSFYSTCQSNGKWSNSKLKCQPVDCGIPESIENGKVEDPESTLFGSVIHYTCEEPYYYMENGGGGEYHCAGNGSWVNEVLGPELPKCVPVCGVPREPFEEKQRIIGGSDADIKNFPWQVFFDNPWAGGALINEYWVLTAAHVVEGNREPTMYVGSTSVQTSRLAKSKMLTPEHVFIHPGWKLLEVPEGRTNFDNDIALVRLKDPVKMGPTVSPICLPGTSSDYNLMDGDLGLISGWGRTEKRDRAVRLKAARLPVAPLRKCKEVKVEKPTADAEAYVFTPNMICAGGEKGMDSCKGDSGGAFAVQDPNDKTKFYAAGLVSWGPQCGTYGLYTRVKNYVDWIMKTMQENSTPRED
Description: as §1, §2

[3] = target: T3, human C1s mutant M3 (M277I, P278S & N329D) (human, UniProt P09871 16-688); assay: ELISA, plate coated with human C1s mutant M3: M277I, P278S, N329D, OD450nm
T3 construct: The entry is the mutant itself
T3 sequence: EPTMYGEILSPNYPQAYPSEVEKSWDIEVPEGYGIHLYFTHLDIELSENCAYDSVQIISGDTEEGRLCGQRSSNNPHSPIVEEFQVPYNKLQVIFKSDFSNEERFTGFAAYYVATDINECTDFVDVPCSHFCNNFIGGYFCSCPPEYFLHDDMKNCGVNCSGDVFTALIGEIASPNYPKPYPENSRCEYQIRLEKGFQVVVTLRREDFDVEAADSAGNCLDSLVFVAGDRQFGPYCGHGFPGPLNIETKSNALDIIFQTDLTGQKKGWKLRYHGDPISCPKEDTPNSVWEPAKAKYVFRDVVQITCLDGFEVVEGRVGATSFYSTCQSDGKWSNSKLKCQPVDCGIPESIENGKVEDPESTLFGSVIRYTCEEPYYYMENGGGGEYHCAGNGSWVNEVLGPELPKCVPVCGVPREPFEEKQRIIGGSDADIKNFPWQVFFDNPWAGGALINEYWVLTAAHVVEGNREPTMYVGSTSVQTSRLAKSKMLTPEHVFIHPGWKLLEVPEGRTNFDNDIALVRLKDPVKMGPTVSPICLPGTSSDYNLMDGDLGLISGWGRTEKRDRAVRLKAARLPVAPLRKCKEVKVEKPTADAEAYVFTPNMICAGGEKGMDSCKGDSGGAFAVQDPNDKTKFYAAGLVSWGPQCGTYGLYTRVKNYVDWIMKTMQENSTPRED
Description: as §1, §2

| Binder | EC50 [1] [ng/mL] | EC50 [2] [ng/mL] | EC50 [3] [ng/mL] |
| --- | --- | --- | --- |
| B1 | 5 | 6 | 8 |
| B2 | 6 | 6 | 6 |
| B3 | 9 | 9 | 4 |
